B1: IR485 (residues 1-485 of the insulin receptor) with enterokinase cleavage site and c-myc epitope tag (receptor)
chain: HLYPGEVCPGMDIRNNLTRLHELENCSVIEGHLQILLMFKTRPEDFRDLSFPKLIMITDYLLLFRVYGLESLKDLFPNLTVIRGSRLFFNYALVIFEMVHLKELGLYNLMNITRGSVRIEKNNELCYLATIDWSRILDSVEDNHIVLNKDDNEECGDICPGTAKGKTNCPATVINGQFVERCWTHSHCQKVCPTICKSHGCTAEGLCCHSECLGNCSQPDDPTKCVACRNFYLDGRCVETCPPPYYHFQDWRCVNFSFCQDLHHKCKNSRRQGCHQYVIHNNKCIPECPSGYTMNSSNLLCTPCLGPCPKVCHLLEGEKTIDSVTSAQELRGCTVINGSLIINIRGGNNLAAELEANLGLIEEISGYLKIRRSYALVSLSFFRKLRLIRGETLEIGNYSFYALDNQNLRQLWDWSKHNLTTTQGKLFFHYNPKLCLSEIHKMEEVSGTKGRQERNDIALKTNGDKASCENELLKFSYIRTSFDKISDDDDKEQKLISEEDLN
notes: also called IR485/myc; soluble IR485

Series [1] deals with the molecule itself. As to the kind of experiment: gel filtration on Superdex 200 HR; monomeric on non-reduced SDS-PAGE.
Source text: Further purification was effected by gel filtration on Superdex 200 HR (Pharmacia, Sweden) in TBSA, monitored at 280 nm.
The target of series [2] is B1. As to the kind of experiment: sandwich ELISA, biotinylated 83-7 as developing antibody.

As for B1, the binding result in series [1] was “binds”.

B2: anti-insulin receptor monoclonal antibody 83-7 (whole antibody) (antibody, V domains shown)
VH: QVQLKESGPGLVAPSQSLSITCTVSGFPLTAYGVNWVRQPPGKGLEWLGMIWGDGNTDYNSALKSRLSISKDNSKSQVFLKMNSLQTDDTARYYCARDPYGSKPMDYWGQGTSVTVSS
VL: DIVMSQSPSSLVVSVGEKVTMSCKSSQSLLYSSNQKNFLAWYQQKPGQSPKLLIYWASTRESGVPDRFTGSGSGTDFTLTISSVKAEDLAVYYCQQYFRYRTFGGGTKLEIKR
notes: also called Mab 83-7
Consider B2, for which the binding result in series [2] is listed as “binds”.
